From the supplement of paper PMC9170038

Test system: MS2 coat protein
Assay: apparent KD of MS2 coat protein; higher = weaker reporter binding
Conditions: Eterna round: R107
How it was run: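 For every design, apparent KD is the median of normalised binding-curve fits from its clusters. The RNA switches were transcribed on-chip from Illumina sequencing clusters and titrated with SNAP-549-labelled MS2 coat protein (twofold steps, 0.7 or 1.5 nM to 3 µM; 0.8–1.5 h to 10–20 min per step). Titrations used 100 mM Tris-HCl pH 7.5, 80 mM KCl, 4 mM MgCl2, without or with constant ligand.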

[1] = input ligand: theophylline 20 uM
[2] = input ligand: theophylline 2 mM
[3] = input ligand: tryptophan 2.4 mM

| Sequence | apparent KD of MS2 coat protein (input ligand: arginine 13.2 mM) [nM] | apparent KD of MS2 coat protein (input ligand: none) [nM] | apparent KD of MS2 coat protein [1] [nM] | apparent KD of MS2 coat protein [2] [nM] | apparent KD of MS2 coat protein [3] [nM] |
| --- | --- | --- | --- | --- | --- |
| GGGCCUAUCUGAAGGAGCGACAUGAGGAUCACCCAUGUCUCCCGUUAUGGGAGUUCUUUAGGUCAGGUAGGUCGCAGGUAGGGCC [#1 Exclusion - Arginine B Attempt #5 (Inspired by Omei)] | 12.2 | 14.7 | 19 | 15.2 | 15 |
| CAUAUAUAUAGAAGGAGCGACAUGAGGAUCACCCAUGUCUACCACGUCGAAAGACGCUCAUGUCAGGUAGGUCGCUAUAUAUAUG [Astros-Eli-mod2] | 56.2 | 115 | 154 | 198 | 147 |
| UCAGUGCAAGGAAGGAGCGGGUACAUGAGGAUCACCCAUGUGCAAGUGGUGAGCGUUUGUGCCCAGGUAGGUCGCCUAGCCUGGU [XArg-B18] | 507 | 125 | 172 | 179 | 159 |
| CGUAUUGGAAACAGUACGAGUGAUCCGGUCCGAGGACCGGUACGGCCGCCACUCGAAAUUAAUAAACAUGAGGAUCACCCAUGUA [Ex Tryptophan A 10] | 14.8 | – | 19.6 | 20.2 | – |
| GGCACGUACGGAAGGAGCGACUGUUCAACGUGGGUACAUGAGGAUCACCCAUGUCUCCGCAGUCAGGUAGGUCGCCGUACGUGCC [EAB NP+V+V2 #20] | 15 | 12.2 | 19.8 | 13.2 | 10.7 |
| AUACAUGAGGAUCACCCAUGUAUGGAUGAAGGAGCGACCAGAGGGUCAGGUAGGUCGCAUCACAUGAGGAUCACCCAUGUAGAAA [DOUBLE!!! :-D #11] | 20.3 | 23.4 | 25.2 | 26.1 | 24 |
| AAUGUAUGGCACAUGAGGAUCACCCAUGUGCGAGGACCGGUACGGCCGCCACUCGGUCGUGGGUUCUUAUUACUAUACAUUAAUG [XTryp A #14] | 11.4 | – | 12.8 | 11.6 | – |
| GCUGCUUAGGGAAGGAGCGCUGCGGAAUUGUGGAGGACAUGAGGAUCACCCAUGUUCCUGCGGCAGGUAGGUCGCUUUGGGCAGC [#17 Exclusion - Arginine B] | 32.8 | 40.3 | 48.1 | 60.5 | 45.3 |
| AGAGCAUUGACGGCCGCCACUCAUGUCACAUGAGGAUCACCCAUGUGAUGGGUGAUAGCCCGGUCGAGGACCGGGUCAAUGCUCA [Omei Tryp SS B v5] | 14.3 | – | 29.7 | 20.6 | – |
| UCGUGAGUUUCGGAUACCAGUGUUGUCGAUACAUGAGGAUCACCCAUGUUAGAGGAUGUACACCCUUGGCAGCCGGCUGUGGCGG [lplmullin] | 15.8 | – | 16.1 | – | 17.3 |
| AGAGUCUAGUCGGCCGCCACUCAUGUCCGAAGGACAUGAGGAUCACCCAUGUACCAAUGGUACAUGAGGACCGGGACUGGACUCA [Omei Tryp B SS C v3] | 34.5 | 39.9 | 98.3 | 559 | 7.34 |
| ACAUGAGGAUCACCCAUGUAGAAAGAUCCUCGAGGACCGGUACGGCCGCCACUCGAGUGGCAGUGUGUGCAGAAAAUGCGCGCGC | 28.6 | 50.9 | 92.2 | 81.4 | 14.2 |
| ACAUGAGGAUCACCCAUGUGCCGUCUUGAUACCAGACCCGAAGUAGUCCCUUGGCAGCAACUACGUGAGGGUCGCCCAUGUGUAG [5kullin] | 16.1 | 14.5 | 22.2 | 16.7 | 13.7 |
| AGCCCGGGAGCGGCCGCCACUGGAGGCUGAGCGCGACAUGAGGAUCACCCAUGUGUGCCCGGCGUUAGGACCGGGCUCGCGUGGU [#1 Same State - Tryptophan B Attempt #23 (HarryS)] | 28.4 | 29.4 | 75 | 79.2 | 32.2 |
| CGGUUUGUGAUGGAUACCAGCAGAGAAAAUGUUUAUCCUAACAUGAGGAUCACCCAUGUAUGCCCUUGGCAGCUGUUGUGGGCUG [8.V] | 43.3 | – | 80.4 | – | 52.5 |
| UAUCCACAUGAGGAUCACCCAUGUAGGGAAGGAGCGGUGAUUUCACCAGGUAGGUCGCCUUACUGAGGAGAACCGGUGGAAUCGU [Exclusion - Arginine A (Freestyle 30)] | 45.5 | 25.9 | 40.6 | 75.9 | 19.8 |
| CCGCACAUGAGGAUCACCCAUGUCAGGGAUACCAGCCCAGACAUGGGCCCUUGGCAGCUUUGUAGCUGACGAAAGUCAGCAGCGG [Omei Theo A SS A v2] | 17.6 | 33.6 | 62.3 | 101 | 59.2 |
| AAAUAAAUACAUGAGGAUCACCCAUGUGAAGGAGCGGCCGUUAGGCCAGGUAGGUCGCGCAUGAAUAACUCCGUGCAAAAGCACA [MAT - Exclusion Arginine A - Mod of Eli - D18] | 9.62 | 11.2 | 16.9 | 13.3 | 12.7 |
| AGCACUGUGACGGCCGCCACUAUAUUAGGGUGGUAAGGUUCAUAAAUACAUGAGGAUCACCCAUGUAGGACCGGGUCUCAGUGCA [Omei Trp Exc B A v2] | 11.8 | 12.6 | 11 | 13.5 | 17.1 |
| UGUACAGACAUCGAAUUCCUAUGUGCUGAAGGAGCGUCGUUGACGACAGGUAGGUCGCAGUUAACAUGAGGAUCACCCAUGUACA [Arg A Ex t5] | 45.8 | 85.8 | 82.3 | 119 | 77.5 |
| UGCACCAUAAUCAUGUUGGUGCUAGGUGAUACCAGCAUCGAAAGAUGCCCUUGGCAGCACCAACAUGAGGAUCACCCAUGUAAUA [(MT)''-(M)'-(T')-(Theo)-(Ms2)_Design1/22_3] | 60.1 | – | 351 | – | 57.9 |
| GCACGACAUGAGGAUCACCCAUGUGCAGAUACCAGUAAUGUAUGUUACCCUUGGCAGCUGAGUAGGUCUGGAGGGCUAUAGGUAA [Same State Theophylline A GF12] | 10.6 | – | 18 | – | 13.7 |
| AGCUCGCAUCCUCAAGCGUCAAAGACGCGUCGAGGACCGGUACGGCCGCCACUCGACAAGAGGAUCACCCUUGUCUAAGCGAGCA [TrypAX 4 #SwitchBubble #AlternativeMS2 #MS2Late #CuTurnoff] | 73.3 | 195 | 182 | 264 | 254 |
| AUACCUAUUGAGUCGUGUUUCUAUUCAGAUACCAGACUUUUCGUUGUCCCUUGGCAGCUGUUUUACAUGAGGAUCACCCAUGUUG [JR_ExcTheophyA_Sub006] | 14.6 | – | 18.3 | – | 15 |
| UAACAUGAGGAUCACCCAUGUUUGAAGGAACGAGGACCGGUACGGCCGCCACUCGACGAGUGGAUGAGAAGUGGGAUUGUGUGCU [Same State Trp A GF8] | 14.4 | 13 | 17.5 | 17.3 | 15.2 |
| AUGACUAACAAAGAAGAUAAAAUGGGUGAACGAGGACCGGUACGGCCGCCACUCGGACAUGAGGAUCACCCAUGUCCAUGUGCAA [#23 Exclusion Tryptophan A] | 15.6 | – | 21.7 | 20.4 | – |
| AAGACCAGGAGGUGAUCCUAACUGGUCCAACGAGGACCGGUACGGCCGCCACUCGAAUAAACAUGAGGAUCACCCAUGUAAUAAU [T''-M-T'-T-MS2] | 58.7 | – | 101 | 90.1 | – |
| AUCGUACCUGAUGAUACCAGCAAUUGCUCGUGACAUGAGGAUCACCCAUGUGACCAGUGAUGCCCUUGGCAGCAUGGUCGGUGCA [Same State - Theophylline B (Freestyle 22)] | 42.8 | – | 79.3 | – | 69.5 |
| UGGGUUGGACCAGGAAAUGGUCUGACUCACCGAGGACCGGUACGGCCGCCACUCGUAGGUACAUGAGGAUCACCCAUGUCGGUGG [#1 Same State - Tryptophan A Attempt #11 (HarryS)] | 91.7 | 23.6 | 34.2 | 36.2 | 68.8 |
